Test results from patent publication CN115043940A (TIANCHEN BIOMEDICAL SUZHOU CO LTD, dated 2022).

B1: 单域抗体LB21 (VHH)
VHH: QVQLVESGGGLVQPGGSLRLSCAASRIIFDVYNLAWFRQAPGKERELVASITSGLSTDYATTVKGRFIISRDNAKNTVYLQMNNLKPEDTAVYYCTANSRTTWYYWGQGTLVTVSS
notes: not shown: C-terminal 6xHis-tag and HA-tag
B2: 单域抗体LB22 (VHH)
VHH: QVQLQESGGGVVQPGGSLRLSCTASGFTFSVYAMGWYRQAPGKDCELVGLITSTSDTRYADSVKGRFSISRDNAKKTVYLQMNRLKPEDTAVYYCMAGNSWGATVQAMCKSDYDYWGQGTQVTVSS
notes: as for B1

Assays:
[1] = target: T1, 人血清白蛋白(Human Serum Albumin,HSA) (human, UniProt P02768 25-609); test: Octet BLI, biotinylated HSA on SA sensor, VHH in solution
T1 construct: The only source named is native HSA (abcam ab205808), for immunisation; also called HSA蛋白; HSA抗原
T1 sequence (P02768 25-609 limits assumed): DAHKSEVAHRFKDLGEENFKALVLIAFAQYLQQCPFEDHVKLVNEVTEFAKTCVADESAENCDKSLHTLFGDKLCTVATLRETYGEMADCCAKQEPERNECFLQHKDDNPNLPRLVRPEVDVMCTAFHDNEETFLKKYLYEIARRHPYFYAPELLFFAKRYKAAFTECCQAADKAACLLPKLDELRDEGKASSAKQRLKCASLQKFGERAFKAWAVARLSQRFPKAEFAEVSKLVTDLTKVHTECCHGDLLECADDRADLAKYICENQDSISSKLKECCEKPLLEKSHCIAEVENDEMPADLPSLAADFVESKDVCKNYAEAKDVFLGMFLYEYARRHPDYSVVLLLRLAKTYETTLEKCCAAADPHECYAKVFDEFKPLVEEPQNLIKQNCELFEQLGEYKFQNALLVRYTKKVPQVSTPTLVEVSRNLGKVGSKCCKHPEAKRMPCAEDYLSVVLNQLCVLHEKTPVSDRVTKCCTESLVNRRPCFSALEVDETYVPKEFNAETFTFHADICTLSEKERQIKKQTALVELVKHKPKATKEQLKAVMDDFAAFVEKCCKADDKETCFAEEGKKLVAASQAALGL

[2] = target: T2, 食蟹猴血清白蛋白 (cynomolgus monkey (食蟹猴), UniProt A2V9Z4 25-608, biotin-labelled (sites not given)); test: Octet BLI, biotinylated cynomolgus serum albumin on SA sensor, VHH in solution
T2 construct: Biotin-labelled and loaded on SA sensors in the Octet assay; also called albumin-macaca; alb-ma
T2 sequence (A2V9Z4 25-608 limits assumed): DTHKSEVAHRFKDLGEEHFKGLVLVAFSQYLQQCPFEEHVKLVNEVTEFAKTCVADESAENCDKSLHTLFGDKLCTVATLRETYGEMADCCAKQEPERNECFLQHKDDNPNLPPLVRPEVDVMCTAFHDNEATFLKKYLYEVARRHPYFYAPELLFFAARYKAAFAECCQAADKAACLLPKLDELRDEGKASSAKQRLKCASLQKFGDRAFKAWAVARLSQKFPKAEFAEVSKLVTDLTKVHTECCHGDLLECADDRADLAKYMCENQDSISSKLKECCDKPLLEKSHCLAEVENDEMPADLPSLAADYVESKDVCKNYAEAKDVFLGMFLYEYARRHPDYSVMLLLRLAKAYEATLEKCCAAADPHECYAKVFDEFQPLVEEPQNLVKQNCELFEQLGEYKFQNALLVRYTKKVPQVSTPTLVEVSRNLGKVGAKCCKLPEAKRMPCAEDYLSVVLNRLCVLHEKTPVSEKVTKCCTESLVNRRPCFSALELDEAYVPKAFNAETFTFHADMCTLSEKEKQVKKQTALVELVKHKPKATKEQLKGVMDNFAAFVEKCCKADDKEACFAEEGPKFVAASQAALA

Binder	Kd [1]	koff [1]	kon [1]	Kd [2]	koff [2]	kon [2]
B1	1.24 nM	0.000687 s⁻¹	554000 M⁻¹ s⁻¹	0.217 nM	2.69e-05 s⁻¹	124000 M⁻¹ s⁻¹
B2	0.109 nM	0.00014 s⁻¹	1.29e+06 M⁻¹ s⁻¹	0.708 nM	6.47e-05 s⁻¹	91300 M⁻¹ s⁻¹
